In publication PMC12279200, “Tumor‐Associated Glycan Exploits Adenosine Receptor 2A Signaling to Facilitate Immune Evasion” (Advanced Science, 2025):
Where a chain is given by its changes, count along the chain named. Names and notes keep the numbering of the source.

B1: translin‐associated factor‐X (TRAX), endogenous (natural protein, UniProt Q99598 1-290, looked up)
chain: MSNKEGSGGFRKRKHDNFPHNQRREGKDVNSSSPVMLAFKSFQQELDARHDKYERLVKLSRDITVESKRTIFLLHRITSAPDMEDILTESEIKLDGVRQKIFQVAQELSGEDMHQFHRAITTGLQEYVEAVSFQHFIKTRSLISMDEINKQLIFTTEDNGKENKTPSSDAQDKQFGTWRLRVTPVDYLLGVADLTGELMRMCINSVGNGDIDTPFEVSQFLRQVYDGFSFIGNTGPYEVSKKLYTLKQSLAKVENACYALKVRGSEIPKHMLADVFSVKTEMIDQEEGIS
notes: translin-associated factor X (TRAX), endogenous in human primary CD4+ T cells and in Jurkat cells; source: endogenous, human primary CD4+ T cell lysate; endogenous, Jurkat (Jurkat-vector) lysate
B2: recombinant TRAX (His‐tagged) (natural protein, UniProt Q99598 1-290, looked up)
chain: B1 chain
notes: translin-associated factor X (TRAX); source: Escherichia coli, His‐tagged recombinant protein
B3: FLAG‐tagged TRAX^(Q219A, Q223A) (natural protein, UniProt Q99598 1-290, looked up)
chain: B1 chain with Q219A, Q223A
notes: translin-associated factor X (TRAX) with Q219A and Q223A; also called mutTRAX‐FLAG; mutTRAX; source: Jurkat cells, lentivirus (Jurkat‐mutTRAX‐FLAG), in lysate
B4: adenosine receptor 2A (A2AR), endogenous (receptor, UniProt P29274 1-412, looked up)
chain: MPIMGSSVYITVELAIAVLAILGNVLVCWAVWLNSNLQNVTNYFVVSLAAADIAVGVLAIPFAITISTGFCAACHGCLFIACFVLVLTQSSIFSLLAIAIDRYIAIRIPLRYNGLVTGTRAKGIIAICWVLSFAIGLTPMLGWNNCGQPKEGKNHSQGCGEGQVACLFEDVVPMNYMVYFNFFACVLVPLLLMLGVYLRIFLAARRQLKQMESQPLPGERARSTLQKEVHAAKSLAIIVGLFALCWLPLHIINCFTFFCPDCSHAPLWLMYLAIVLSHTNSVVNPFIYAYRIREFRQTFRKIIRSHVLRQQEPFKAAGTSARVLAAHGSDGEQVSLRLNGHPPGVWANGSAPHPERRPNGYALGLVSGGSAQESQGNTGLPDVELLSHELKGVCPEPPGLDDPLAQDGAGVS
notes: adenosine receptor 2A (A2AR), endogenous in human primary CD4+ T cells and in Jurkat cells; also called A2a receptor; source: endogenous, human primary CD4+ T cell lysate; endogenous, Jurkat (Jurkat-vector and Jurkat-mutTRAX-FLAG) lysate

Legend:
[1] = biological target: B4; assay: co-IP; Jurkat‐vector or Jurkat‐mutTRAX‐FLAG cells incubated with 30 µM GHCer or PBS at 37 °C for 1 h; immunoprecipitation with anti‐A2AR, anti‐TRAX or anti‐FLAG, western blot; conditions: partners not purified
[2] = biological target: B4; assay: co-IP; human primary CD4+ T cells incubated with 30 µM GHCer or PBS at 37 °C for 1 h; immunoprecipitation with anti‐A2AR or anti‐TRAX, western blot with anti‐TRAX or anti‐A2AR; conditions: partners not purified
[3] = biological target: T1, A2AR fragment E (aa 291–393) (UniProt P29274 291-393); assay: Luminex bead-based assay; A2AR‐His full length or fragments captured on Luminex beads conjugated with anti‐His antibody; TRAX in solution, detected by antibody and PE-conjugated antibody; with PBS, 30 µM GHCer or 30 µM GH‐biotin; PBS with 1% BSA, 37 °C, 60 min; signals normalised to full‐length A2AR/PBS/TRAX; conditions: both partners purified
T1 construct: adenosine receptor 2A (A2AR), C-terminal fragment E, aa 291–393; source: Escherichia coli, His‐tagged recombinant protein

[4] = biological target: T2, full‐length recombinant A2AR protein (A2AR‐His, fragment A) (UniProt P29274 1-412); assay: as above; conditions: both partners purified
T2 construct: adenosine receptor 2A (A2AR), full-length (fragment A); the printed end of fragment F (aa 412) fits the human protein; captured on beads by an anti-His antibody; also called full‐length N‐His‐A2AR; A2AR‐full length; source: Escherichia coli, His‐tagged recombinant protein; not shown: His, N-terminal, kept

[5] = biological target: T3, A2AR fragment F (aa 291–412) (UniProt P29274 291-412); assay: as above; conditions: both partners purified
T3 construct: adenosine receptor 2A (A2AR), C-terminal fragment F, aa 291–412; source: Escherichia coli, His‐tagged recombinant protein

[6] = biological target: B3; assay: co-IP; Jurkat‐vector or Jurkat‐mutTRAX‐FLAG cells incubated with 30 µM GHCer or PBS at 37 °C for 1 h; immunoprecipitation with anti‐A2AR, anti‐TRAX or anti‐FLAG, western blot; conditions: partners not purified
[7] = biological target: B1; assay: as above; conditions: partners not purified
[8] = biological target: B1; assay: co-IP; human primary CD4+ T cells incubated with 30 µM GHCer or PBS at 37 °C for 1 h; immunoprecipitation with anti‐A2AR or anti‐TRAX, western blot with anti‐TRAX or anti‐A2AR; conditions: partners not purified

With B1 the “fold TRAX co-precipitated with GHCer over PBS control” value [1] was 2.3 fold and the “fold TRAX co-precipitated with GHCer over PBS control” value [2] was 2.1 fold.

B2 was tested, and the “fold binding signal with GHCer over fragment A without GHCer” value [3] was 2.3 fold, the “fold binding signal with 30 µM GHCer over PBS control” value [4] was 1.6 fold and the “fold binding signal with GHCer over fragment A without GHCer” value [4] was 1.5 fold. The “fold binding signal with GHCer over fragment A without GHCer” value [5] was 1.8 fold.

In the case of B3, the “fold co-precipitated by anti‐A2AR with GHCer over PBS control” value [1] is reported as 1 fold.

B4 was tested, and the “fold co-precipitated by anti‐FLAG with GHCer over PBS control” value [6] was 1.1 fold, the “fold A2AR co-precipitated with GHCer over PBS control” value [7] was 2 fold and the “fold A2AR co-precipitated with GHCer over PBS control” value [8] was 1.8 fold.
